The nature of data set [1]: Co-formulation study of ectodomain-based traps with incretin mimetics (monomer content by SEC / RP-HPLC, integrity, stability). Format: physicochemical. The note with it: retatrutide formulations, 20 mM NaPO4, glycine, sucrose, histidine pH 7.5. A general note: SEC sorts molecules by how far they enter the pores of the column.
Method: In each case, the following parameters were assessed: a) monomer content (size exclusion chromatography), b) activin A and GDF-8 neutralization (cell-based assays [CBAs]), c) activin A binding (ELISA), d) GLP-1 receptor binding (ELISA).
In each case, the following parameters were assessed: a) monomer content (size exclusion chromatography), b) activin A and GDF-8 neutralization (cell-based assays [CBAs]), and c) GLP-1 receptor activation (CBA).
Given that protein aggregation can be indicative of reduced conformational stability and decreased activity, Size-Exclusion Chromatography-High Performance Liquid Chromatography (SEC-HPLC) was used to determine the purity of each ActRIIB-ECD construct. This method measured the percentage of intact monomeric species as well as the presence of aggregates and/or degradation products.
In some instances, the method used to assess the purity of an agent was based on a reversed-phase high-performance liquid chromatography (RP-HPLC) setup with a C18 column. The mobile phases consisted of acetonitrile with 0.1% formic acid (organic phase) and water with 0.1% formic acid (aqueous phase). […] Formic acid anions form an ion pair with positively charged peptides, increasing their hydrophobicity and therefore their retention time. Detection was performed using a UV detector, at 280 nm.
For data set [2], the target named is GLP-1 receptor (GLP-1R) on CHO-K1 cells stably overexpressing GLP-1R (UniProt P43220). As to the kind of experiment: cell-based or functional assay.
Data set [3] deals with T1, GIP receptor (GIPR) on CHO-K1 cells stably overexpressing GIPR (UniProt P48546).
T1 sequence (looked up): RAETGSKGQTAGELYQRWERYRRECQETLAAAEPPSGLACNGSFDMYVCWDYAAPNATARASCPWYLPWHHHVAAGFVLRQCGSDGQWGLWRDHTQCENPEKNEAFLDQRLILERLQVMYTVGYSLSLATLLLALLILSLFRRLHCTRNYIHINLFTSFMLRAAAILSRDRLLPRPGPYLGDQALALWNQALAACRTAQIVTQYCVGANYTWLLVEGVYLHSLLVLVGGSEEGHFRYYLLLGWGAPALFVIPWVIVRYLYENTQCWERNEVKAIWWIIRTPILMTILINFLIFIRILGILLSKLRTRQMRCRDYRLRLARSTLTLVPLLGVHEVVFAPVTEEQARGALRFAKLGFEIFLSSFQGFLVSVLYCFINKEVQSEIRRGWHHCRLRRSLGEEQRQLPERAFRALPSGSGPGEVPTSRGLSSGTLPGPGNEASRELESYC
As to the kind of experiment: cell-based or functional assay.

We go through two compounds from patent US20260193317A1, “COMBINATION THERAPY WITH ACTRIIB RECEPTOR VARIANTS AND GLP-1 AGONISTS” (35PHARMA Inc., priority 2023, published 2026).

GLP-1 receptor (GLP-1R) on CHO-K1 cells stably overexpressing GLP-1R, sequence (P43220 24-463 limits assumed): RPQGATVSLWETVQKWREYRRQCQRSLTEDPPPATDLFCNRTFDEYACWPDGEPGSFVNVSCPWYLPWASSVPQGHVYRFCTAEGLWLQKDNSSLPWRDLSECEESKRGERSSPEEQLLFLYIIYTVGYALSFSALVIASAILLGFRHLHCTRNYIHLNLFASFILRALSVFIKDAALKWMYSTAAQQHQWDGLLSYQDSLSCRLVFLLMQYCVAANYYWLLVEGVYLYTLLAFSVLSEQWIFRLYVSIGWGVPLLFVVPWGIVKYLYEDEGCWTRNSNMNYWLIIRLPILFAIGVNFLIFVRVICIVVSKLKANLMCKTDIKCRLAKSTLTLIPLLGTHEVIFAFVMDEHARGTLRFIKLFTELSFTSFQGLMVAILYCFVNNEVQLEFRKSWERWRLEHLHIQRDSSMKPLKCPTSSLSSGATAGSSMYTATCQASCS

As for `CC[C@H](C)[C@H](NC(=O)[C@H](Cc1ccccc1)NC(=O)[C@H](C)NC(=O)C(C)(C)NC(=O)[C@H](CCC(N)=O)NC(=O)[C@H](C)NC(=O)[C@H](CCCCNC(=O)COCCOCCNC(=O)CC[C@H](NC(=O)CCCCCCCCCCCCCCCCCCC(=O)O)C(=O)O)NC(=O)[C@H](CCCCN)NC(=O)[C@H](CC(=O)O)NC(=O)[C@H](CC(C)C)NC(=O)[C@](C)(CC(C)C)NC(=O)[C@@H](NC(=O)[C@H](CO)NC(=O)[C@H](Cc1ccc(O)cc1)NC(=O)[C@H](CC(=O)O)NC(=O)[C@H](CO)NC(=O)[C@@H](NC(=O)[C@H](Cc1ccccc1)NC(=O)[C@@H](NC(=O)CNC(=O)[C@H](CCC(N)=O)NC(=O)C(C)(C)NC(=O)[C@@H](N)Cc1ccc(O)cc1)[C@@H](C)O)[C@@H](C)O)[C@@H](C)CC)C(=O)N[C@@H](CCC(=O)O)C(=O)N[C@@H](Cc1ccc(O)cc1)C(=O)N[C@@H](CC(C)C)C(=O)N[C@@H](CC(C)C)C(=O)N[C@@H](CCC(=O)O)C(=O)NCC(=O)NCC(=O)N1CCC[C@H]1C(=O)N[C@@H](CO)C(=O)N[C@@H](CO)C(=O)NCC(=O)N[C@@H](C)C(=O)N1CCC[C@H]1C(=O)N1CCC[C@H]1C(=O)N1CCC[C@H]1C(=O)N[C@@H](CO)C(N)=O` [Retatrutide alone], the “Monomer Content (%) Retatrutide” value is on record as 100% in data set [1] (D 0); 100% in data set [1] (D 7, 2-8° C.); 100% in data set [1] (D 7, RT); 100% in data set [1] (D 14, 2-8° C.); 100% in data set [1] (D 14, RT); 100% in data set [1] (D 28, 2-8° C.). The “Monomer Content (%) Retatrutide” value in data set [1] (D 28, RT) is 100%; in data set [1] (D 56, 2-8° C.) it was 100%; in data set [1] (D 56, RT), 100%.

As for retatrutide (peptide), in data set [2], the CBA potency GLP-1R; P1372 + retatrutide; D 0 turned out to be 3 pM, the CBA potency GLP-1R; P1372 + retatrutide; D 7 2-8°C was 2 pM, the CBA potency GLP-1R; P1372 + retatrutide; D 7 RT came to 1.8 pM and the CBA potency GLP-1R; P1372 + retatrutide; D 14 2-8°C is 4.1 pM. Further, in data set [2], the CBA potency GLP-1R; P1372 + retatrutide; D 14 RT was 3.3 pM, the CBA potency GLP-1R; P1372 + retatrutide; D 28 2-8°C is 2.9 pM, the CBA potency GLP-1R; P1372 + retatrutide; D 28 RT worked out at 2.1 pM and the CBA potency GLP-1R; P1372 + retatrutide; D 56 2-8°C is 2.3 pM. Besides, in data set [2], the CBA potency GLP-1R; P1372 + retatrutide; D 56 RT worked out at 2.3 pM, the CBA potency GLP-1R; Retatrutide alone; D 0 amounted to 3 pM, the CBA potency GLP-1R; Retatrutide alone; D 7 2-8°C amounted to 1.8 pM and the CBA potency GLP-1R; Retatrutide alone; D 7 RT was 2.5 pM. In data set [2], this compound returned a CBA potency GLP-1R; Retatrutide alone; D 14 2-8°C of 3.1 pM, a CBA potency GLP-1R; Retatrutide alone; D 14 RT of 5.6 pM, a CBA potency GLP-1R; Retatrutide alone; D 28 2-8°C of 2.7 pM and a CBA potency GLP-1R; Retatrutide alone; D 28 RT of 2.7 pM. Moreover, in data set [2], the CBA potency GLP-1R; Retatrutide alone; D 56 2-8°C came out at 2.1 pM and the CBA potency GLP-1R; Retatrutide alone; D 56 RT was 1.9 pM. Moreover, in data set [3], the CBA potency GIPR; P1372 + retatrutide; D 0 was found to be 0.94 pM, the CBA potency GIPR; P1372 + retatrutide; D 7 2-8°C is 0.98 pM, the CBA potency GIPR; P1372 + retatrutide; D 7 RT worked out at 0.98 pM and the CBA potency GIPR; P1372 + retatrutide; D 14 2-8°C turned out to be 1.1 pM. For the same compound, in data set [3], the CBA potency GIPR; P1372 + retatrutide; D 14 RT turned out to be 0.76 pM, the CBA potency GIPR; P1372 + retatrutide; D 28 2-8°C is 1 pM, the CBA potency GIPR; P1372 + retatrutide; D 28 RT is 0.84 pM and the CBA potency GIPR; P1372 + retatrutide; D 56 2-8°C was found to be 0.85 pM. In data set [3], the CBA potency GIPR; P1372 + retatrutide; D 56 RT was determined as 0.75 pM, the CBA potency GIPR; Retatrutide alone; D 0 turned out to be 0.74 pM, the CBA potency GIPR; Retatrutide alone; D 7 2-8°C came out at 1 pM and the CBA potency GIPR; Retatrutide alone; D 7 RT is 0.87 pM. Moreover, in data set [3], the CBA potency GIPR; Retatrutide alone; D 14 2-8°C was found to be 1 pM, the CBA potency GIPR; Retatrutide alone; D 14 RT is 1.2 pM, the CBA potency GIPR; Retatrutide alone; D 28 2-8°C stood at 1.1 pM and the CBA potency GIPR; Retatrutide alone; D 28 RT stood at 1.1 pM. In data set [3], this compound registered a CBA potency GIPR; Retatrutide alone; D 56 2-8°C of 0.84 pM and a CBA potency GIPR; Retatrutide alone; D 56 RT of 0.82 pM.
